Measurements as given in patent US20050079151A1, “Therapeutic agents for apoptosis-related diseases” (priority 1998, published 2005).

Legend:
G401 cells = assay: Inhibitory effect on apoptosis induced by carcinostatic (Hoechst staining method); type: cell-based
Experimental: Five groups were prepared; the untreated group, the cisplatin (100 μM) treated group, the MK (1, 10, or 100 ng/mL)+cisplatin (100 μM) treated groups.
G401 cells (2×10^4) were seeded on a 3.5 cm-dish and cultured in 10% FBS/DMEM overnight. 10% FBS/DMEM was added to each dish and further cultured for 24 to 48 hours. The cells were washed twice and cultured in 0.1% FBS/DMEM overnight. MK was added to the MK treatment groups to 1, 10, or 100 ng/ml and cultured in 0.1% FBS/DMEM for 6 hours. Cisplatin was added to the cisplatin treatment groups to 100 μM and cultured in 0.1% FBS/DMEM for 2 hours. After culturing, the cells were washed three times. Then, human MK was added to the MK treatment groups to 1, 10, or 100 ng/ml and cultured in 0.1% FBS/DMEM for 12 or 24 hours.
The cells were fixed with a fixative (methanol:acetic acid=3:1) at room temperature for 10 min, and dried at room temperature for 30 min. Hoechst 33342 (ICN Biomedicals; Ohio, USA) was added thereto to stain the cells at room temperature for 10 to 30 min. The cells were washed with water three times, wind-dried, and mounted onto a fluorescent microscope (Olympus, BX60) and photographed. FIGS. 2A, 2B, and 2C show the untreated group, the cisplatin (100 μM) treated group, and the MK (100 ng/mL)+cisplatin (100 μM) treated group, which were all cultured for 12 hours. […]

Bcl-2 = assay: Effect for enhancing Bcl-2 expression (Western blotting); type: cell-based; conditions: G401 cells
Experimental: The effect of MK on the expression of the Bcl-2 gene was examined. Six groups were prepared; the untreated group, the cisplatin (100 μM) treated group, the human MK (100 ng/ml) treated group, the human MK (100 ng/ml)+cisplatin (100 μM) group, the mouse MK (100 ng/ml) treated group, and the mouse MK (100 ng/ml)+cisplatin (100 μM) treated group.
G401 cells were seeded on a 3.5 cm-dish and cultured in 10% FBS/DMEM until the cells became almost confluent. The cells were washed twice and cultured in 0.1% FBS/DMEM overnight. Then, human MK or mouse MK (JP-A No. Hei 8-196293) was added to the MK treatment groups at 100 ng/ml and cultured for six hours. Cisplatin was added to the cisplatin treatment group to 100 μM, and cultured for 2 hours. After culturing, the cells were washed with 0.1% FBS/DMEM three times, cultured in 0.1% FBS/DMEM for 10 hours, and washed with PBS three times.
Two hundred microliters of buffer [1% Triton X-100, 150 mM NaCl, 10 mM Tris (pH 7.4), 1.0 mM EGTA, 0.5% NP-40, 1 mM PMSF, 0.1 μg/ml apiotinin, 40 nM Iewpeptin] were added to each dish and kept on ice for 20 min. The cells in each dish were detached by a scraper, and mixed 8 to 10 times using a syringe with a 26-gauge needle. The cells of each dish were centrifuged in a centrifuge tube at 4° C. at 12000 rpm for 30 min. The precipitated proteins were quantified (BCA Kit; PIERCE). The precipitate prepared from each dish (50 μg) was analyzed by Western blotting using anti-Bcl-2 monoclonal antibody (500×) (Dako; Denmark) and anti-mouse HRP antibody (Jackson Immuno Research) (FIG. 6). The band in each lane is numerically shown (FIG. 7).

B1: MK: midkine, a heparin-binding growth and differentiation factor; human MK protein (SEQ ID NO: 3; or recombinant, secreted by yeast) (protein, UniProt P21741 21-143, looked up)
Midkine: VAKKKDKVKKGGPGSECAEWAWGPCTPSSKDCGVGFREGTCGAQTQRIRCRVPCNWKKEFGADCKYKFENWGACDGGTGTKVRQGTLKKARYNAQCQETIRVTKPCTPKTKAKAKAKKGKGKD
numbers of cells containing Hoechst 33342-stained nuclei with condensed chromatin and fragmented nuclei (G401 cells; MK 100 ng/mL + cisplatin 100 μM, 12 and 24 hours, compared to cisplatin alone): remarkably decreased | Frequency of apoptotic cell death (Hoechst 33342) (G401 cells; MK 1, 10 or 100 ng/ml + cisplatin 100 μM, 12 and 24 hours culture, compared with the cisplatin treated group): decreased in a MK concentration-dependent fasion | expression of Bcl-2 (Bcl-2; MK 100 ng/ml, no cisplatin): enhanced the expression of Bcl-2 | concentration showing the Bcl-2 enhancing effect (Bcl-2; data not shown): ≥ 10 ng/mL
